The values that follow come from the nanobody polyreactivity screen of Harvey et al. (2022).

This data set is described as follows: yeast display, Sf9 membrane polyspecificity reagent, FACS + sequencing; frameworks hold sequencing errors. The method, boiled down:
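A synthetic nanobody library was expressed on Saccharomyces cerevisiae BJ5465 by galactose induction for 36–48 hours. The library was stained for 1 hour at 4 °C with 10% biotinylated, detergent-solubilized Sf9 membrane reagent and enriched with streptavidin microbeads before FACS. Low and high (top ~1%) gates were set on anti-HA fluorescence for expression and streptavidin fluorescence for reagent binding, and each polyreactivity label reflects the gate of origin.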
In the case of “QVQLVESGGGLVQAGGSLRLSCAASGSIFLVYAMGWYRQAPGKERELVAVIRWRDGSTYYADSVKGRFTISRDNAMNTVYLQMNSLKPEDTAVYYCAADGVIFEYDYWGQGTQVTVSS”, the “polyreactivity (PSR sort gate)” value was “low polyreactivity”.
Turning to “QVQLVESGGGLVQAGGSLRLSCAASGSIFLVYSMGWYRQAPGKERELVAGITSDDSTNYADSVKGRFTISRDNAKNTVYLQMNSLKPEDTAVYYCAKDSLVWYIVDLGYWGQGTQVTVSS”, the “polyreactivity (PSR sort gate)” value is given as “low polyreactivity”.
With “QVQLVESGGGLVQAGGSLRLSCAASGSIFLWYTMGWYRQAPGKERELVAAISSSGGSTYYADSVKGRFTISRDNAKNTVYLQTNSLKPEDNAVYYCAAAKLFYYGRKYGKYDYWGQGTQVTVSS”, the “polyreactivity (PSR sort gate)” value was “high polyreactivity”.
The same measure for “QVQLVESGGGLVQAGGSLRLSCAASGSIFLYNAMGWYRPAPRKERELVAAISKSGGSTYYADSVKGRFTISRDNAKNTVYLQMNSLKPEDSAVYYCAAGYGRRIRYGSDYDYWGQGTQVTVSS”: “low polyreactivity”; for “QVQLVESGGGLVQAGGSLRLSCAASGSIFLYNAMGWYRQAPGKERELVAAISASGGSTYYADSVKGRFTISRDNAKNTVYLQMNSLKPEDTAVYYWAAQYSDYDGFTWPLPPRYDYWGQGTQVTVSS”: “high polyreactivity”.
With “QVQLVESGGGLVQAGGSLRLSCAASGSIFLYNAMGWYRQAPGKERELVADITSAGRTYYADSVKGRFTISRDNAKNTVYLQMNSLKPEDTAVYYCNKDYHYHFSWYGYWGQGTQVTVSS” the entry was “low polyreactivity”.
With “QVQLVESGGGLVQAGGSLRLSCAASGSIFLYYAMGWYRPAPGKDRELVAAIRRGGNTNYADSVKGRFTISRDNAKNTVYLQMNSLKPVDTAVYYCAAAQYSRYSRVPNYYAGTYYYWGQGTQVTVSS” the entry was “low polyreactivity”; with “QVQLVESGGGLVQAGGSLRLSCAASGSIFLYYAMGWYRQAPGKERELVAAITGGGGTNYADSVKGRFTISRDNAKNTVYLQMNSLKPEDTAVYYCAADTSGQFPYSYYNYDYDYWGQGTQVTVSS”, “low polyreactivity”.
In the case of “QVQLVESGGGLVQAGGSLRLSCAASGSIFLYYAMGWYRQAPGKERELVASISSGGSTNYADSVKGRFTISRDNAKNTVYLQMNSLKPEDTAVYYCAARPYGGGRRSIYYYWGQGTQVTVSS”, the “polyreactivity (PSR sort gate)” value is on record as “high polyreactivity”.
Take “QVQLVESGGGLVQAGGSLRLSCAASGSIFLYYVMGWYRKAPGKERELVAAITWDGGSTYYADSVKGRFTISRDNAKNTVYLQMNSLKPEDTAVYYCNKGFKLWPRYGYDYWGQGTQVTVSS”: the “polyreactivity (PSR sort gate)” value is listed as “low polyreactivity”.
For “QVQLVESGGGLVQAGGSLRLSCAASGSIFNAMGWYRQAPGKERELVAAITSGSSTYYADSVKGRFTISRDNAKNTVYLQMNSLKPEDTAVYYCAAGSQRRYYHTNWDSFNYWGQGTQVTVSS”, the “polyreactivity (PSR sort gate)” value is “low polyreactivity”.
The same measure for “QVQLVESGGGLVQAGGSLRLSCAASGSIFNAYAMGWYRQAPGKERELVAAISKRTSYADSVKGRFTISRDNAKNTVYLQMNSLKPEDTAVYYCAKEVDEPDGYEYDYWGQGTQVTVSS”: “low polyreactivity”; for “QVQLVESGGGLVQAGGSLRLSCAASGSIFNEYAMGCYRQAPGKERELVAAISTSGDITYYADSVKGRFTISRDNAKNTVDLQMNSLKPEDTAVYYCAAKYSLLRQYNRLDSWGQGTQVTVSS”: “low polyreactivity”.
The same measure for “QVQLVESGGGLVQAGGSLRLSCAASGSIFNGYAMGWYRQAPGKERELVADIRSGGSTYYADSVKGRFTISRDNAKNTVYLQMNSLKPEDTAVYYCAADTITDGYDYWGQGTQVTVSS”: “low polyreactivity”; for “QVQLVESGGGLVQAGGSLRLSCAASGSIFNKYAMGWYRQAPGKERELVATISFRGGSTYADSVKGRFTISRDNAKNTVYLQMNSLKPEDTAVYYCATKSGRNSPRMDYWGQGTQVTVSS”: “high polyreactivity”; for “QVQLVESGGGLVQAGGSLRLSCAASGSIFNRNVMGWYRQAPGKERELVAAITWSGASTYYADSVKGRFTISRDNAKNTVYLQMNSLKPEDTAVYYCAATQYYRGYDYWGQGTQVTVSS”: “high polyreactivity”.
With “QVQLVESGGGLVQAGGSLRLSCAASGSIFNRYAMGWYRPAPGKERELVAAISRSGGRTYYADSVKGRFTISRDNAKNTVYLQMNSLKPEDTAVYYCAADKYYRQHEFDYWGQGTQVTVSS” the entry was “high polyreactivity”; with “QVQLVESGGGLVQAGGSLRLSCAASGSIFNRYAMGWYRQAPGKERELVAAISTHTGTTYYADSVKGRFTISRDNAKNTDYLQMNSLKPEDTAGYYCAKRSRYGYGKSYDYWGQGTQVTVSS”, “high polyreactivity”; with “QVQLVESGGGLVQAGGSLRLSCAASGSIFNRYAMGWYRQAPGKERELVAAISTHTGTTYYADSVKGRFTISRDNAKNTVYLQMNSLKPEDTAVYYCAKRSRYGYGKSYDYWGQGTQVTVSS”, “high polyreactivity”.
Turning to “QVQLVESGGGLVQAGGSLRLSCAASGSIFNSNAMGWYRQAPGKERELVAAITGSGGRTYYADSVKGRFTISRDNAKNTVYLQMNSLKPEDTAVYYCNAVTYSRRYAYYDWGQGTQVTVSS”, the “polyreactivity (PSR sort gate)” value is reported as “high polyreactivity”.
With “QVQLVESGGGLVQAGGSLRLSCAASGSIFNVNTMGWYRQAPGKERELVAAISYSGGSTYYADSVKGRFTISRDTAKNTVYLQMNSLKPEDTAVYYCAAESYIEYYLKYDYWGQGTQVTVSS” the entry was “low polyreactivity”; with “QVQLVESGGGLVQAGGSLRLSCAASGSIFNVYAMGWYRQAPGKERELVAAISDGDGSTFYADSVKGRFTISRDNAKNTVYLQMNSLKPEDTAVYYCAKDYRWDSKFDYWGQGTQVTVSS”, “low polyreactivity”; with “QVQLVESGGGLVQAGGSLRLSCAASGSIFNVYAMGWYRQAPGKERELVAAISDGDGSTFYADSVKGRFTISRDNAKTTVYLQMNSLKPEDTAVYYCAKDYRWDRKFDYWGQGTQVTVSS”, “low polyreactivity”.
The same measure for “QVQLVESGGGLVQAGGSLRLSCAASGSIFNVYGMGWYRQAPGKERELVAAISKSGTSTSYADSVKGRFTISRDNAKNTVYLQMNSLKPEDTAVYYRNAGYRTWWGKKYDYWGQGTQVTVSS”: “low polyreactivity”.
With “QVQLVESGGGLVQAGGSLRLSCAASGSIFNWNAMGWYRQAPGKERDLVATITITTSTNYADSVKGRFTISRDNAKNSVYLQMNCLKPEDNGVYYCNAGDPYRYLDDYNYWGQGTKVTVSS” the entry was “low polyreactivity”; with “QVQLVESGGGLVQAGGSLRLSCAASGSIFNWYTMGWYRQAPGKERELVAVITQSGGSTYYADSVKGRFTISRDNAKNTVYLQMNSLKPEDTAVYYCAKRYWSYQYGYRMYYWGQGTQVTVSS”, “high polyreactivity”; with “QVQLVESGGGLVQAGGSLRLSCAASGSIFNYNAMGWYREAPRKERELVAAITWRGGTTSYADSVKGRFSISRDNAKNTVYLQMNSLKPEDTAVYYCNAYQWRHRYTMYYWGQGTQVTVSS”, “high polyreactivity”.
On to “QVQLVESGGGLVQAGGSLRLSCAASGSIFNYNMGWYRQAPGKERELVAAVSTNYADSVKGRFTISRDNAKNTVYLQMNSLKPEDPAGYYCGVTPEKSGDQYDYWGPGTQVTVSS”, for which the “polyreactivity (PSR sort gate)” value was “low polyreactivity”.
The same measure for “QVQLVESGGGLVQAGGSLRLSCAASGSIFNYYAMGRYRQAPGKERELVAAIETTGGSTYYADSVKGRFTISRDNAKNTVYLQMNSLKPEDTAVYYCAATWAKPWYYEYDYWGQGTQVTVSS”: “low polyreactivity”.
With “QVQLVESGGGLVQAGGSLRLSCAASGSIFNYYAMGWYRQAPGKEREFVAGITTSGGSTYYADSVKGRFTISRDNAKNTVCLQMNSLKPEDTAVYYCAAYDYISSTYFLDDYWGQGTQVTVSS” the entry was “low polyreactivity”; with “QVQLVESGGGLVQAGGSLRLSCAASGSIFNYYAMGWYRQAPGKERELVAAIRSTGSTNYADSVKGRFTISRDNAKNTVYLQMNSLKPEDTAVYYCATDVSDWLYFAEHYYWGQGTQVTVSS”, “low polyreactivity”.
Regarding “QVQLVESGGGLVQAGGSLRLSCAASGSIFNYYAMGWYRQAPGKERELVAGITTSGGSTYYADSVKGRFTISRDNAKNTVYFQMHSLKPEDTAVYYGAAYDYISSTYFLDDYWGQGTQVTVSS”, the “polyreactivity (PSR sort gate)” value was “low polyreactivity”.
With “QVQLVESGGGLVQAGGSLRLSCAASGSIFNYYAMGWYRQAPGKERELVATISSGGNTKYADSVKGRFTISRDNAKNTVYLQMNSLKPEDTAVYYCAARWQHSGYRDRYWYDYWGQGTQVTVSS” the entry was “low polyreactivity”; with “QVQLVESGGGLVQAGGSLRLSCAASGSIFNYYAMGWYRQAPGKERELVATITRGGSTYYADSVKGRFTISRDNAKNTVYLQMNRLKPEDTAVYYCAKVGRSTAYQNGYDYWGQGTQVTVSS”, “low polyreactivity”.
With “QVQLVESGGGLVQAGGSLRLSCAASGSIFNYYAMGWYRQAPGKVRELVATISSGGNTKFADSVKGRFTISRDNAKNTVYLQMKSLKPEDTAVYFCGARWQHSGYRDRYCYDYWGQGTQVTVSS” the entry was “low polyreactivity”; with “QVQLVESGGGLVQAGGSLRLSCAASGSIFNYYAMGWYRQEPGKERELVAAISSGGSTYYADSVKGRFTISRDNAKNTVYLQMNSLKPEDTAVYYCAVDSPYLDEYDYWGQGTQVTVSS”, “high polyreactivity”; with “QVQLVESGGGLVQAGGSLRLSCAASGSIFNYYTMGWYRQAPGKERELVAAISWSGGSTYYADSVKGRFTISRDNAKNTVYLQMNSLKPEDTAVYYCAAVVRYSQAGYYYWGQGTQVTVSS”, “high polyreactivity”.
The same measure for “QVQLVESGGGLVQAGGSLRLSCAASGSIFPFYAMGWYRQAPGKERELVAAISWSVGNTYYADSVKGRFTISRDNAKNTVYLQMNRLKPEDTAVYYCAARQDPPLGYDYWGQGTQVTVSS”: “low polyreactivity”; for “QVQLVESGGGLVQAGGSLRLSCAASGSIFPGNTMGWYRQAPGKERELVAVITKRGGRTYYADSVKGRFTISRDNAKNTVYLQMNSLKPEDTAVYYCARAPSYSTGVSIRDYWGQGTQVTVSS”: “high polyreactivity”.
In the case of “QVQLVESGGGLVQAGGSLRLSCAASGSIFPGYAMGWYRQAPGKERELVADITSGDTTKYADSVKGRFTISRDNAKNNVYLQMNSLKPEDTAVYYCAADDYLTDFDYWGQGTQVTVSS”, the “polyreactivity (PSR sort gate)” value is reported as “low polyreactivity”.
“QVQLVESGGGLVQAGGSLRLSCAASGSIFPGYTMGWYRQAPGKESELVAAITSSGGSTYYADSVKGRITISRDNAKNTVYLQMNSLKPEDTSVYYCAADTTNYFVPFDYWGLGTQVTVSS”: the “polyreactivity (PSR sort gate)” value was “low polyreactivity”.
